Biological target: SARS-CoV2 Spike protein (ECD, His & Flag Tag) (GenScript, Z03481) (135 kDa) (SARS-CoV2 virus, UniProt P0DTC2 14-1213)

B1: purified recombinant 7G7.2 antibody (antibody, human IgG1, kappa)
heavy: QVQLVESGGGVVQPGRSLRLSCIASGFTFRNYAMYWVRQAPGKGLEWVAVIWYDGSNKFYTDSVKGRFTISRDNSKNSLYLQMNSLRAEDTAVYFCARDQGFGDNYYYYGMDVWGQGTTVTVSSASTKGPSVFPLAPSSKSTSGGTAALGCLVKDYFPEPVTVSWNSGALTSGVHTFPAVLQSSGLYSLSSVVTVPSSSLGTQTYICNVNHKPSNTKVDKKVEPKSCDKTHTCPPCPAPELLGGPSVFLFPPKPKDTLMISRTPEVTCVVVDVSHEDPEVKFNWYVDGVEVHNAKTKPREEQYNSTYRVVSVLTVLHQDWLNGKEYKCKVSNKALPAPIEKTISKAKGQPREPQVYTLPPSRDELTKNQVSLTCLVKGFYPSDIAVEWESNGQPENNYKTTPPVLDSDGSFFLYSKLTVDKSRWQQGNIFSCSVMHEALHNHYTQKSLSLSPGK
light: SYELTQPPSVSVSPGQTARISCSGDALPKEYAYWYQQKPGQAPVLVIYKDSERPSGIPERFSGSSSGTTVTLTISGVQAEDEADYYCQLADSSMHYVVFGGGTKLTVLRTVAAPSVFIFPPSDEQLKSGTASVVCLLNNFYPREAKVQWKVDNALQSGNSQESVTEQDSKDSTYSLSSTLTLSKADYEKHKVYACEVTHQGLSSPVTKSFNRGEC
  Kd: 1.55 nM

B2: purified recombinant 7G7.1 antibody (antibody, human IgG1, lambda)
heavy: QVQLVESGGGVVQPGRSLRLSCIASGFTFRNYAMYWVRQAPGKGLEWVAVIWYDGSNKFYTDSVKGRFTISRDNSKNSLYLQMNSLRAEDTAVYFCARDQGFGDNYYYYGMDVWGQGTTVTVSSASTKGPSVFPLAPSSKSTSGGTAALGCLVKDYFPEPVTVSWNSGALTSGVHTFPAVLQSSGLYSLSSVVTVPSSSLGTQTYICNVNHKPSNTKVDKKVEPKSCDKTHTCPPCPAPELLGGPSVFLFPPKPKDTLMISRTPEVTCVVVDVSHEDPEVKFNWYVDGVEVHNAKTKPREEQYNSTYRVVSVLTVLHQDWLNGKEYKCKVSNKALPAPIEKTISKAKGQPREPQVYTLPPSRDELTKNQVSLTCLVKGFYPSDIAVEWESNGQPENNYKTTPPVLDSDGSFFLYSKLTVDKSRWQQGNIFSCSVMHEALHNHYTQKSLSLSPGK
light: SYELTQPPSVSVSPGQTARISCSGDALPKEYAYWYQQKPGQAPVLVIYKDSERPSGIPERFSGSSSGTTVTLTISGVQAEDEADYYCQLADSSMHYVVFGGGTKLTVLGQPKAAPSVTLFPPSSEELQANKATLVCLISDFYPGAVTVAWKADSSPVKAGVETTTPSKQSNNKYAASSYLSLTPEQWKSHRSYSCQVTHEGSTVEKTVAPTECS
  Kd: 2.04 nM
